Test results as given in the nanobody polyreactivity screen of Harvey et al. (2022).

Assay: yeast display, Sf9 membrane polyspecificity reagent, FACS + sequencing; frameworks hold sequencing errors
Procedure, shortened: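 Nanobodies came from a synthetic yeast display library in Saccharomyces cerevisiae BJ5465, induced with galactose for 36–48 hours and stained for 1 hour at 4 °C with 10% biotinylated, detergent-solubilized Sf9 membrane reagent. Cells were enriched on streptavidin microbeads and then FACS-sorted, with low and high (top ~1%) gates set on anti-HA fluorescence for expression and streptavidin fluorescence for reagent binding. Each polyreactivity label reflects the gate a clone came from. Genes were amplified by colony PCR, sequenced by MiSeq 2 × 250 and filtered by CDR length.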

| Sequence | polyreactivity (PSR sort gate) |
| --- | --- |
| QVQLVESGGGLFQAGGSLRLSCAASGSTFESNAMGWYRQAPGKERELVAAISSSGGSTYYADSVKGRFTISRDNAKNTVYLQMNSLKPEVTAVYYCNKGGLSYYDYWGQVTQVTVSS | high polyreactivity |
| QVQLVESGGGLFQAGGSLRLSCAASGSTFQYNAMGWYRQAPGKERELVARITSGGRTDYADSVKGRFTITRDNAKNTVYLQMNSLKPEDTAVYYCAARYGYRGSTKYLSKPFYYWGQGTQVNVSS | high polyreactivity |
| QVQLVESGGGLFQAGGSLRLSCAASGSTFTTNAMGWYRQAPGKERELVAAITKRGGTTSYADSVKGRFTISRDNAKNSVYLLMNSLKPADTAVYYCAADVEVSWAYDAWWYGGGYYWGQCTQVTVSS | high polyreactivity |
| QVQLVESGGGLFQAGGSLRLSCAASGSTLVGNAMGWYRQAPGKERELVATISSSGGSTYYADSVKGRFTISRDNAKNTVYLQMNSLKPEDTGVYYCAARIQWPTWSLYYYWGQGTQVTVSS | high polyreactivity |
| QVQLVESGGGLFQAGGSLRLSCAASGTFVTYMGWYRQEPGQERELVAAIRNGGSTNYADSVKGRFTISRDNAKNTVYLQMNSLKPEDTAVYYCAARVTYSRGYRGGSRTKYDYWGQGTQVTVSS | low polyreactivity |
| QVQLVESGGGLFQAGGSLRLSCAASGTTLVRYAMGWYRQAPGIERELVASISYSGGSTHYADSVKGRFTISRDNAKNTVYLQMNSLKPEDTAVDYWAARPYYSWGGHYYWGQGTQVTVSS | high polyreactivity |
| QVQLVESGGGLFQAGGSLRLSCAATGRTYEGNAMGWSIQAPGKERELVAAITSGGRTNYADSVKGRFSISRDNAKNTVDLQMNSLKPEDTAVYYCAVETRDRSNYFPGQAYDYWGQGTQVTVSS | low polyreactivity |
| QVQLVESGGGLFQAGGSLRLSFAASGIIFPYNLMGWYRQAPGKERELVAAITRGAASTYYADSVKGRFTISRDHEKNTVYLQMNSLKPEDTAVYFCNADGTWRTYNFWGQGTQVTVSS | high polyreactivity |
| QVQLVESGGGLFQAGGSLRLSSAASGFIFWTNVMGWYRQQPGKVRELVAGISKSGGSTYYADSVKGRFTISRDNAKNTVYLQMNCLKPEDTAVYYCAAPRPPAGRYGYWGQGTQVTVSS | high polyreactivity |
| QVQLVESGGGLFQAGGSLRLSSAASGFTFWYYAMGWYRQAPGKERELVASISRTGGTTYYADSVKGRFKISRDIAKNTVYLQMNSLKPEDTAVYYCAARRQARRYWEGDYWCQGTQVTVSS | high polyreactivity |
| QVQLVESGGGLFQAGGSLSLSCAASGFIFYTNAMGWYRQAPGKERELVATITTSGGRTYYADSVKGRFTISRDNAKNTVFLQMNSLKPEDTAVDYCATRYVVIEYDYWGQGTQVTVSS | low polyreactivity |
| QVQLVESGGGLFQEGGSLRLSCAASGYTFKGNAMGWYRQAPGKDWELVAAISRSGASTYYADSVKGRFTISRDNAKNTVYLQMNSLKPEDTAVYYCAAEWYRGGEYRRYDYWGQGTQVTVSS | high polyreactivity |
| QVQLVESGGGLFQPGGILRLSFAASGSTIIDYAMGWYRQEPWKERELVASITWSGGSTYYADSVKGRFTFSRDNAKNTVYLQINCLKPVDSAVYYCNSDVNVGLEVLIVYEYDYWGQGTQVTVSS | low polyreactivity |
| QVQLVESGGGLGQAGASLRLSCAASGLTFRYYALGWYRQAPGKLMELVAAISSRGASTYYADSVKGRITISRDNAKNTVYLQMTSLKPEDTAVYYCAARYTGKYEREYNYWGQGTQVTVSS | high polyreactivity |
| QVQLVESGGGLGQAGASLRLSSAATGFTFRPNAMGWYRQAPGKERELVAAISWRGTRTSYADSVKGRFTISRDNAKNTVYLQMNSLKPEDTAVYSCAARLVRRYDYDYWGQGTQVTVSS | high polyreactivity |
| QVQLVESGGGLGQAGGRLRLSCAASGSIFRRNAMGWYRQAPGKERELVAGISGGGSTYYADSVKGRFTISRDNAKNTVYLQMYSLKPEDTAVYYCATDKHYRWAGFDYWGQGTQVTVSS | low polyreactivity |
| QVQLVESGGGLGQAGGSLRLICAASGRTFLYNAMGWYRQAPGNERELVASITSGGSTNYADSVKGRFTISRDNAKNTVNLQMNSVKPEDTAVYYCAADERRPYWQHSIGSGRPFDYWGQGTQVTVSS | low polyreactivity |
| QVQLVESGGGLGQAGGSLRLSCAASGFTFRTNAMGWYRQAPGKEREFVAAISWSGGRTYYADSVKGRFTISRDNAKNTVYLQMNSLKPEDTAVYYCNADPFHWYYTNMYYWGQGTQVTVSS | high polyreactivity |
| QVQLVESGGGLGQAGGSLRLSCAASGFTFTYNDMGWYRQAPGKEREFVAAISSTGGSTYYADSVKGRFTISRDNAKNTVYLQMNSLKPEDTAVYYCAAEDSWYWDAWFDYWGQGTQVTVSS | low polyreactivity |
| QVQLVESGGGLGQAGGSLRLSCAASGFTFWYYGRGWYRQAPGKERELVAAITSSGGRTSYADSVKGRFTISRDNAKNTVYLQMNSLKPEETADYYCAALYSYYSLYDDYDYWGQGTQVTVSS | high polyreactivity |
| QVQLVESGGGLGQAGGSLRLSCAASGFTFYYNAMGWYRQAPGKERELVATIRGTGSTNYADSVKGRFTISRDNAKNTVYLQMNSLKTEDTAVYYCDAPVDYQGDYWGQGTQVTVSS | low polyreactivity |
| QVQLVESGGGLGQAGGSLRLSCAASGIIFVENAMGWNRQAPGKERELVATITSGDTTNYADSVKGRFTISRDNAKNTVYLQMNSLKPEDTAVYYCKKVVPDDAYIFAYDYWGQGTQVTVSS | low polyreactivity |

| Sequence | polyreactivity (PSR sort gate) |
| --- | --- |
| QVQLVESGGGLGQAGGSLRLSCAASGITFSGNAMRWYRQAPGKEREYVAAITWRGENTYYADSVKGRFTISRDTAKNTVSLQMNSLKPVDTAVYYCAAISPLVGLTSYRGPDDSWGQGTQVTVSS | low polyreactivity |
| QVQLVESGGGLGQAGGSLRLSCAASGITFYPNGMGWYRPAPGKEREFVAAITSSGGSTYYADSVKGRFTISRDNAKNTVYLQMNSLKPEDTAVYYCAAQYYPISYYGYGYWGQGTQVTVSS | low polyreactivity |
| QVQLVESGGGLGQAGGSLRLSCAASGLIFNIYARGWYSQAPGKDRELVATIRYSGGSTNYADSVKGRVTISRDNAKNTVNLQMKSLNPEDTAVYYCNAGYYPTGYDYWGQGTQVTVSS | low polyreactivity |
| QVQLVESGGGLGQAGGSLRLSCAASGLIFVRNDMGWYRQAPGKERELVADISDGSTYADSVKGRFTISRDNAKNTVYLQMNSLKPEDTAVYYCNKDNHDVELPVEFEYWGQGTHVTVSS | high polyreactivity |
| QVQLVESGGGLGQAGGSLRLSCAASGRIFYRYVMGWYRPAPGKERELVAAITTSGGRTYYADSVKGRFTISRDNAKNTVYLQLNSLKPEDTAVYDCAAASPTPVYWSGRDYYYWGQGTQVTVSS | high polyreactivity |
| QVQLVESGGGLGQAGGSLRLSCAASGRTFYYYTMGWYRPAPGKERELVAAITHGGSTYYADSVKGRFTISRDNAQNTVYLQMNSLKPEDTAVYSCTAVYHYPYEYWGQGTQVTVSS | high polyreactivity |
| QVQLVESGGGLGQAGGSLRLSCAASGSIFDWYAMGWYRKAPGKEGELVAAISSGDSTYYADSVKGRFTISRDNAKNTFYLQMNSLKPEDTAVYYCAAVTKLSGIRYNYWGQGTQVTVSS | low polyreactivity |
| QVQLVESGGGLGQAGGSLRLSCAASGSIFITYAMGWYRQAPGKERELVAAIRRGGRTNYADSVKGRFTISRDNAKNTVYLQMNSLKPEDTAVYYCAAEFRTGWPYYPDYAYDYWGQGSQVTVSS | low polyreactivity |
| QVQLVESGGGLGQAGGSLRLSCAASGSIFPDYVMGWYRQAPGKARELVAAISRGGSTYYADSVKGRFTISRDNAKNTVYLQMNSLKPEDTAVYYCAADNPHWRYEYWGPGTQVTVSS | high polyreactivity |
| QVQLVESGGGLHQAGGSLRLSCAASGSTYASNARGWYRQAPGKETELVAAITSRDASTYYADSVKGRFTISRDYAKNTVYLQMNRLKPEDTAVYYCATDGYSPAAFDYWGQGTQVTVSS | low polyreactivity |
| QVQLVESGGGLIQAGGSLRLSCAASGSTFANNAMGWYRPAPGKERELVAAISYNGGSTYYADSVKGRFTISRDNAKNTVYLQMNSLKPEDTAVYYCAAYHFRAPSEYDYWGQGTQVTVSS | low polyreactivity |
| QVQLVESGGGLIQAGGSLRLSCATSGSIFDDYAMGWYRQAPGKERELVAAISSSGTSTYYADSVKGRFTISRDNAKNTVYLQMKSLKPEDTAVYYCAARSAILKSGYLMDYWGQGTQVTVSS | low polyreactivity |
| QVQLVESGGGLLKAGGSLRLSCAASGIIFDSYAMGWYIQAPGKERELVAAITSDSGRTYYADSVKGRFTISRDYAKNTFYLQMNSLKPEDTAVYYCAKRWEGPYDYWGQGSQVTVSS | low polyreactivity |
| QVQLVESGGGLLKAGGSLRLSCAASGSTFSVYAMGWYRQAPGKEREFVARITWNGGRTYYADSVKGRFTISRDNAKNTVYLQMNSLKPEDTAVYYCAARGPTVTGTGGDYWGQGTQVTVSS | high polyreactivity |
| QVQLVESGGGLLKEGGSLRLICAASGRIFVGYDMGWYRQEPGKERELVAAISSDGGSTYYSDSVKGRFTISRDNAKNTVYLQMNSVKPEDTAFYYCAADDFSTVEYDYWGQGTQVNVSS | low polyreactivity |
| QVQLVESGGGLLQAGASLRLSCAASGRTIYRYAMGRYRQAPGKERELVAAITRRGVNTYYADSVKGRFTISRDNAKNTVYLQMYSLKPVDTAVFYCNAAYSSRYDYCGQGTQVTVSS | high polyreactivity |
| QVQLVESGGGLLQAGCSLRISCAASGFIFYKYVMGWYRPAPGKERELVAAINWSGGSTYYADSVKGRFTISRDNAKNTVYLQMNSLKQEDTAVYYCNAARRSKGGLNDYYWGQGTQVTVSS | high polyreactivity |
| QVQLVESGGGLLQAGGILRLSCAASGRTFGLYAMRWYRQAPGKERELVAAIRGSAGSTYYADSVKGRFTISRDNAKNTVYLQMNSLKPEDTAVYYCATVGYPSLWYGYGYWGQGTQVTVSS | low polyreactivity |
| QVQLVESGGGLLQAGGRLRLSCAASGGIFQGYAMGWYRQAPGKERELVAAISRSGGRTYYADSVKGRFTISRDNAKNTVYLQMNSLKPEDTAVYYCAKSQSAKGGYDYWGQATQVTVSS | high polyreactivity |
| QVQLVESGGGLLQAGGSLLLSCAASGSIFDTNAMGWYRQAPGTERELVAAISWSDTSTYADSVKGRFTISRDNAKNTVYLQMNSLKPEDTAVYYCATDTRSQAYYYWGQGTQVNVSS | low polyreactivity |
| QVQLVESGGGLLQAGGSLRLICAASGFIVRRYAMGWYRQAPGKARELVAAITSGGSTYYADSVKGRFTISRDNAQYTVYLQFNSMKPVDTADYYCNAYFTGKWYDYWGQGTQVTVSS | high polyreactivity |
